We go through one molecule from US20110207628A1 (UNIVERSITY OF MIAMI, published 2011).

This test addresses T1, GST-tubby-F (GST fused to full-length mouse tubby) (Schistosoma japonicum; mouse, UniProt P50586 1-505).
T1 construct: mature; Expressed in E. coli BL21(DE3) from pGEX-2T; not shown: glutathione S-transferase of pGEX-2T (Schistosoma japonicum)
T1 sequence (looked up): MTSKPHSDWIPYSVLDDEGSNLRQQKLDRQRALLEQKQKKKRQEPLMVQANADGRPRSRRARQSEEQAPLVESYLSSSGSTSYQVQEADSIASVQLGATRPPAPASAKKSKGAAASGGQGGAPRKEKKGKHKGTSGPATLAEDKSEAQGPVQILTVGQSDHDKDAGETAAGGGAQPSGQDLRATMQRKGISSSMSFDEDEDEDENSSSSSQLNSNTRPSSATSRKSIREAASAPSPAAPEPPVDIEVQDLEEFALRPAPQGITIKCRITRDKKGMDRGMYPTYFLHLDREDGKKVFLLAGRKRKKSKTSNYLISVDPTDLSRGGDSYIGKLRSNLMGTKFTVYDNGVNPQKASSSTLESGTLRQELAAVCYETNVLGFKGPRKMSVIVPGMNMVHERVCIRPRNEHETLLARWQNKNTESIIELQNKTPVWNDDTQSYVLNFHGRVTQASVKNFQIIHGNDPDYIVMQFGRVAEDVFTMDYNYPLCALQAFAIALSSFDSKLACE
Put plainly: GST pull-down: GST-tubby with lysate of cells expressing the FLAG-tagged protein, glutathione resin, Western blot with anti-FLAG mAb. For orientation: Immunoblotting shows a protein as a band on a membrane.

B1: FLAG-tagged Tulp3 (full-length mouse Tulp3 with N-terminal FLAG tag) (other)
chain: DYKDDDDKMEAARCAPGPRGDSAFDDETLRLRQLKLDNQRALLEKKQRKKRLEPLMVQPNPEARLRRLKPRGSEEHTPLVDPQMPRSDVILHGIDGPAAFLKPEAQDLESKPQVLSVGSPAPEEGTEGSADGESPEETAPKPDLQEILQKHGILSSVNYDEEPDKEEDEGGNLSSPSARSEESAAASQKAASETGASGVTAQQGDAQLGEVENLEDFAYSPAPRGVTVKCKVTRDKKGMDRGLFPTYYMHLEREENRKIFLLAGRKRKKSKTSNYLVSTDPTDLSREGESYIGKLRSNLMGTKFTVYDHGVNPVKAQGLVEKAHTRQELAAICYETNVLGFKGPRKMSVIIPGMNMNHERIPFRPRNEHESLLSKWQNKSMENLIELHNKAPVWNDDTQSYVLNFHGRVTQASVKNFQIVHGNDPDYIVMQFGRVADDVFTLDYNYPLCALQAFAIGLSSFDSKLACE
notes: mature; Expressed from pcDNA3 in Neuro-2a cells; used as cell lysate or on membrane vesicles
B1: the binding result was “no binding”.
